Experimental data published in publication PMC1636354 (Nucleic Acids Research, 2006).

Experiments:
Experiment in all cases: pull-down
[1] = target: T1, human Rad54B protein (untagged, purified) (human, UniProt Q9Y620 1-910)
T1 sequence: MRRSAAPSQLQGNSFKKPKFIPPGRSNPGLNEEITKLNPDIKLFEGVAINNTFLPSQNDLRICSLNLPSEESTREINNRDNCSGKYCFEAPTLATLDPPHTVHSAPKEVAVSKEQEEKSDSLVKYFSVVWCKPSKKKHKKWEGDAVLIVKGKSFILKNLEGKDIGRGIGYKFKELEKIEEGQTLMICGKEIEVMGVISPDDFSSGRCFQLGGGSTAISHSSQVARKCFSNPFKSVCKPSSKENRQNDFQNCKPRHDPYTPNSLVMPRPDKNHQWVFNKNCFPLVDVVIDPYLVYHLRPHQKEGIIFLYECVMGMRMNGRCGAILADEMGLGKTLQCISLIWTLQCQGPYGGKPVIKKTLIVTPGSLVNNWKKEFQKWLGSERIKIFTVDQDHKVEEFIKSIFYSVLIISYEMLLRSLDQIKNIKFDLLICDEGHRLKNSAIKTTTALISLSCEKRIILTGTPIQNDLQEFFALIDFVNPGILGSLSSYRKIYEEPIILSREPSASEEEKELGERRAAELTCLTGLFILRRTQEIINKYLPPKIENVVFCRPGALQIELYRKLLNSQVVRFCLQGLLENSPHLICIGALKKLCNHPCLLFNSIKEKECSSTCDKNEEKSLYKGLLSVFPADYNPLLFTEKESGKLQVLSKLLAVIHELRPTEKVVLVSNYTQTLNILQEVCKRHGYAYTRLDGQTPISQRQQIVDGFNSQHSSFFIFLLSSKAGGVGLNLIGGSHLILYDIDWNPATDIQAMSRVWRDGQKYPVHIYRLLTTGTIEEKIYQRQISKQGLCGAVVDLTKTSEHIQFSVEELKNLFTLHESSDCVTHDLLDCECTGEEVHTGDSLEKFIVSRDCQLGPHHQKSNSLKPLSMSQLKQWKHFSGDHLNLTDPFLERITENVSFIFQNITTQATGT

pull-down = target: the molecule itself
Dmc1 = target: T2, Dmc1 (human, UniProt Q14565 1-340)
T2 sequence: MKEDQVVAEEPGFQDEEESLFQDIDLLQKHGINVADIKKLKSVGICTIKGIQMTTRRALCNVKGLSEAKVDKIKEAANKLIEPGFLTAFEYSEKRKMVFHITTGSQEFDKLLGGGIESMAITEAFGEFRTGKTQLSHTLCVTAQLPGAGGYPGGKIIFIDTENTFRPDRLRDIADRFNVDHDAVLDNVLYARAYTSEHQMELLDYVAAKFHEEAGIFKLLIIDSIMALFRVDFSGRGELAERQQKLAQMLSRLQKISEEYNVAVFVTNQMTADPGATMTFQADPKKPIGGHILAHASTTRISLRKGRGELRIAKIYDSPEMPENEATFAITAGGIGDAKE

B1: human Rad51 protein (natural protein)
chain: MAMQMQLEANADTSVEEESFGPQPISRLEQCGINANDVKKLEEAGFHTVEAVAYAPKKELINIKGISEAKADKILAEAAKLVPMGFTTATEFHQRRSEIIQITTGSKELDKLLQGGIETGSITEMFGEFRTGKTQICHTLAVTCQLPIDRGGGEGKAMYIDTEGTFRPERLLAVAERYGLSGSDVLDNVAYARAFNTDHQTQLLYQASAMMVESRYALLIVDSATALYRTDYSGRGELSARQMHLARFLRMLLRLADEFGVAVVITNQVVAQVDGAAMFAADPKKPIGGNIIAHASTTRLYLRKGRGETRICKIYDSPCLPEAEAMFAINADGVGDAKD
binding result [1]: binds

B2: Dmc1 mutant lacking 81 amino acid residues from the N-terminus (Dmc1 82-340) (domain or fragment)
chain: EPGFLTAFEYSEKRKMVFHITTGSQEFDKLLGGGIESMAITEAFGEFRTGKTQLSHTLCVTAQLPGAGGYPGGKIIFIDTENTFRPDRLRDIADRFNVDHDAVLDNVLYARAYTSEHQMELLDYVAAKFHEEAGIFKLLIIDSIMALFRVDFSGRGELAERQQKLAQMLSRLQKISEEYNVAVFVTNQMTADPGATMTFQADPKKPIGGHILAHASTTRISLRKGRGELRIAKIYDSPEMPENEATFAITAGGIGDAKE
binding result [1]: binds | binding result (pull-down): binds

B3: human Dmc1 protein (purified) (natural protein)
chain: T2 sequence
binding result [1]: binds | binding result (pull-down): binds

B4: SAT-120 (ssDNA)
DNA: ATTTCTTCATTTCATGCTAGACAGAAGAATTCTCAGTAACTTCTTTGTGCTGTGTGTATTCAACTCACAGAGTGGAACGTCCCTTTGCACAGAGCAGATTTGAAACACTCTTTTTGTAGT
binding result (Dmc1): binds
